Results on two molecules are retold here after US20160333110A1 (CHIOME BIOSCIENCE, published 2016).

For experiment [1], the target named is T1, human TROP-2 (hTROP-2) endogenously expressed on the cell surface of human cancer cell lines (human, UniProt P09758 27-323).
T1 construct: also called TACSTD2; PK-59 cells
T1 sequence: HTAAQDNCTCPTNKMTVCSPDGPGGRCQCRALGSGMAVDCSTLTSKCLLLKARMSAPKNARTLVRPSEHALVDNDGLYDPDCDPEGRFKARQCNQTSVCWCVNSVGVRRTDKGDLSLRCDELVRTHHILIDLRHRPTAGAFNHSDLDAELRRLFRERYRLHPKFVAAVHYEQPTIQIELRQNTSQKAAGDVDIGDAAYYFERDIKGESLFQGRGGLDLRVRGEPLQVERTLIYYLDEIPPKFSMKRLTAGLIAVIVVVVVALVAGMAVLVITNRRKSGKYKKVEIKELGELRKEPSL
Put plainly: FACS on BxPC-3 cells, 0.1 µg antibody. As to the method:
Cancer cells were removed from a culture dish by a trypsin treatment, and a cell suspension was then prepared (cell density: 2×10⁶ cells/mL). An anti-hTROP-2 monoclonal antibody (0.1 μg) was added to 100 μL of the cell suspension, and they were then reacted at 4° C. for 20 minutes. The reaction solution was washed with PBS, and it was then reacted with PE-labeled anti-mouse IgG (BD Biosciences Pharmingen) (0.1 μg) (at 4° C. for 30 minutes). Thereafter, the resultant was analyzed by FACSCalibur (Becton, Dickinson and Company).
Subsequently, the reactivity of the generated anti-hTROP-2 monoclonal antibodies with human cancer cell lines (in which an hTROP-2 protein was endogenously expressed on the cell surface) was examined by FACS analysis.

The target of experiment [2] is T2, mouse TROP-2 protein transiently expressed in CHO-K1 cells (mouse, UniProt Q8BGV3 25-317).
T2 construct: whole, on cells
T2 sequence (looked up): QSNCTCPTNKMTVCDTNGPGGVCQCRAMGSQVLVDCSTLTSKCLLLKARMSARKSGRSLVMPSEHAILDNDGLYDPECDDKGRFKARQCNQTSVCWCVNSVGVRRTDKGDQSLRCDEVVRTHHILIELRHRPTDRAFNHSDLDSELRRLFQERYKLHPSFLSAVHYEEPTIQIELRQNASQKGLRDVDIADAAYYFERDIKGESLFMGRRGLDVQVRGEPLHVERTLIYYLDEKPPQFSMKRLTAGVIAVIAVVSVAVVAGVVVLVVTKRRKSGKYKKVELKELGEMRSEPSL
Put plainly: FACS on CHO-K1 cells transiently expressing mouse TROP-2. The source says:
(§1) Specifically, each of an expression vector (mouse TROP-2-pcDNA3.1(+), furnished by the Institute of Molecular and Cellular Biosciences, the University of Tokyo) comprising the full-length cDNA of a mouse TROP-2 gene (GenBank accession No. NM_020047, Y08830), and an expression vector (pcDNA3.1-hEpCAM-myc/His) comprising the full-length cDNA of a human TROP-1/EpCAM gene (GenBank accession No. NM_002354), was transiently introduced into CHO-K1 cells, using Lipofectamine2000 reagent (Invitrogen). Thereafter, 24 to 48 hours later, the cells were removed from a culture dish by treating them with trypsin, and a cell suspension was then prepared. The thus prepared cell suspension was successively reacted with the produced anti-hTROP-2 monoclonal antibody (0.1 μg) and with PE-labeled anti-mouse IgG, and it was then analyzed by FACSCalibur.

In experiment [3] the target is T3, human TROP-1/EpCAM protein transiently expressed in CHO-K1 cells (human, UniProt P16422 24-314).
T3 construct: whole, on cells; also called human EpCAM/TROP-1; hEpCAM; not shown: C-terminal myc/His tag from pcDNA3.1-hEpCAM-myc/His
T3 sequence (looked up): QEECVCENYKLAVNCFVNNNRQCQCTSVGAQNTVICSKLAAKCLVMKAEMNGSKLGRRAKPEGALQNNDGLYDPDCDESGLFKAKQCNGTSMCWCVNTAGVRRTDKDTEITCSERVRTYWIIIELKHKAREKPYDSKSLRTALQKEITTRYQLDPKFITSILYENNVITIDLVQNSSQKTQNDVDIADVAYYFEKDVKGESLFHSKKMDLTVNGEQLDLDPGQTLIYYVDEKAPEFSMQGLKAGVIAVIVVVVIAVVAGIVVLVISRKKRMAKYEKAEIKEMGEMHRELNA
As to the kind of experiment: FACS on CHO-K1 cells transiently expressing human EpCAM/TROP-1.
Source text: as §1

The target of experiment [4] is T4, recombinant protein of the hTROP-2 extracellular region (human, UniProt P09758 27-263).
T4 construct: produced with baculovirus, purified on Ni Sepharose; also called hTROP-2 EC; hTROP-2-EC-His; not shown: C-terminal myc-His tag from pcDNA4/myc-His A
T4 sequence: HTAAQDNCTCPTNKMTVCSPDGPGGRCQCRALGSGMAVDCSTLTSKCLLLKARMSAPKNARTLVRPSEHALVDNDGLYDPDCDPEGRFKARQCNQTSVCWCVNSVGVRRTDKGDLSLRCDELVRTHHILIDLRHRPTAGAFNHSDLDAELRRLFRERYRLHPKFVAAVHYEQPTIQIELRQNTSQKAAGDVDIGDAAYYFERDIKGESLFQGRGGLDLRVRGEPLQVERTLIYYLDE
As to the kind of experiment: antigen-coated ELISA, plate coated with 0.5 µg/ml hTROP-2 extracellular region. As to the method: Furthermore, antigen affinity was also examined by an ELISA method. ELISA was carried out using an ELISA plate which was coated with the recombinant protein of the hTROP-2 extracellular region as described in Example 3. Specifically, a 96-well plate (BD FALCON) was coated with a 50 μl/well recombinant protein of a hTROP-2 extracellular region that had been diluted with PBS to 0.5 μg/ml (at 4° C. overnight). Thereafter, the resultant was washed with a washing buffer (PBS containing 0.05% Tween 20), and a blocking buffer (PBS containing 2% skim milk and 0.05% Tween 20) was then added thereto (200 μl/well) to block it (at room temperature for 1 hour). The resultant was washed with a washing buffer. […] The obtained dilution samples were each added in an amount of 50 μl/well to the above-described ELISA plate (at room temperature for 2 hours). […] After the mixture had been washed with a washing buffer, a TMB (3,3′,5,5′-tetramethylbenzidine: SIGMA) substrate solution was added (50 μl/well) to the resultant to carry out a color reaction. Then, 1 M sulfuric acid (25 μl/well) was added to the reaction product to terminate the reaction. Using Microplate reader Model 550 (BioRad), an absorbance at 450 nm was measured with an absorbance at 655 nm used as a reference.
(In general: An ELISA detects its analyte on a solid surface through an enzyme-linked reagent.)

B1: anti-hTROP-2 monoclonal antibody clone K5-70 (antibody, mouse IgG2a, V domains shown)
VH: QVQLQQPGAELVRPGASVKLSCKASGYTFTIYWINWVKQRPGQGLEWIGNIYPSDSYTNYNQKFKDKATLTVDKSSSTAYMQLSSPTSEDSAVYYCTRTSMADYWGQGTTLTVSS
VL: DILLTQSPAILSVSPGERVSFSCRASQSIGTSIHWYQQRTNGSPRLLIKYASESISGIPSRFSGSGSGTDFTLSINSVESEDIADYYCQQSNSWPFTFGSGTKLEIK
notes: mouse IgG2a, hybridoma FERM BP-11251; also called K5-70 antibody; mouse K5-70 antibody
Turning to B1, the “mean fluorescence intensity, times that with PE-labeled anti-mouse IgG alone” value in experiment [1] amounted to 45 times. Also, the binding result in experiment [2] and in experiment [3] was “no binding (tested: 0.1 µg antibody)” each time. Also, in experiment [4], the EC50 stood at 0.027 µg/mL.

B2: anti-hTROP-2 monoclonal antibody clone T6-16 (antibody, mouse IgG2a, V domains shown)
VH: EVQLQQSGPELVKPGASVKISCKASGYTFTDYNMHWVKQSHGKNLEWIGYIYPYNGGTGYNQRFKSRATMTVDKSSSTAYMELRSLTSDDSAVYYCAREDYGSSPSYAMDYWGQGTSVIVSS
VL: DVVMTQTPLSLPVSLGDQASISCRSSQSLVHGNGNTYLHWYLQKPGQSPKLLIYKVSNRFSGVPDRFSGSGSGTDFTLKISRVEAEDLGVYFCSQTTHVPTFGSGTKLEIK
notes: mouse IgG2a, hybridoma FERM BP-11346; also called T6-16 antibody
Consider B2, for which the “mean fluorescence intensity, times that with PE-labeled anti-mouse IgG alone” value in experiment [1] is 25 times. Moreover, the binding result in experiment [2] and in experiment [3] was “no binding (tested: 0.1 µg antibody)” each time. Also, the EC50 in experiment [4] amounted to 0.03 µg/mL.

Broadly, the EC50 is the concentration giving half of the maximal effect.
